± gives the uncertainty stated by the source.

The nature of the data set: abundance fitness (aPCA) (normalised: wild type 0, dead -1); higher = more abundant; growth selection in yeast, the domain comes from the species named. The conditions noted are these: Homo sapiens.
“BAG family molecular chaperone regulator 3 H42E, O95817”: the abundance fitness is -0.738 ± 0.33. In the case of “BAG family molecular chaperone regulator 3 H42G, O95817” it was -0.65 ± 0.09; in that of “BAG family molecular chaperone regulator 3 H42I, O95817”, -0.625 ± 0.29; in that of “BAG family molecular chaperone regulator 3 H42K, O95817”, -0.942 ± 0.42.

As to “BAG family molecular chaperone regulator 3 H42L, O95817”, the abundance fitness was -0.641 ± 0.18. “BAG family molecular chaperone regulator 3 H42M, O95817”: the abundance fitness was -0.37 ± 0.11. Next, “BAG family molecular chaperone regulator 3 H42P, O95817”: -0.788 ± 0.13.

Turning to “BAG family molecular chaperone regulator 3 H42R, O95817”, the abundance fitness was -0.448 ± 0.18. Next, “BAG family molecular chaperone regulator 3 H42S, O95817”: -0.678 ± 0.25; “BAG family molecular chaperone regulator 3 H42T, O95817”: -0.55 ± 0.21.

Take “BAG family molecular chaperone regulator 3 H42W, O95817”: the abundance fitness was -0.886 ± 0.14. In the case of “BAG family molecular chaperone regulator 3 H42Y, O95817” it was -0.55 ± 0.088; in that of “BAG family molecular chaperone regulator 3 I28A, O95817”, -0.423 ± 0.2. In the case of “BAG family molecular chaperone regulator 3 I28C, O95817” it was -0.375 ± 0.22; in that of “BAG family molecular chaperone regulator 3 I28D, O95817”, -0.503 ± 0.18; in that of “BAG family molecular chaperone regulator 3 I28E, O95817”, 0.316 ± 0.11. In the case of “BAG family molecular chaperone regulator 3 I28G, O95817” it was -0.088 ± 0.08. Take “BAG family molecular chaperone regulator 3 I28L, O95817”: the abundance fitness was -0.444 ± 0.17. The substance “BAG family molecular chaperone regulator 3 I28M, O95817” registered an abundance fitness of 0.248 ± 0.14. “BAG family molecular chaperone regulator 3 I28N, O95817” had an abundance fitness of 0.206 ± 0.3. Next, “BAG family molecular chaperone regulator 3 I28P, O95817”: -0.713 ± 0.28; “BAG family molecular chaperone regulator 3 I28Q, O95817”: -0.307 ± 0.22; “BAG family molecular chaperone regulator 3 I28R, O95817”: 0.171 ± 0.066. On to “BAG family molecular chaperone regulator 3 I28S, O95817”, for which the abundance fitness came to 0.183 ± 0.083.

As for “BAG family molecular chaperone regulator 3 I28T, O95817”, the abundance fitness is -0.636 ± 0.29.

On to “BAG family molecular chaperone regulator 3 I28V, O95817”, for which the abundance fitness was 0.068 ± 0.1. Take “BAG family molecular chaperone regulator 3 I28Y, O95817”: the abundance fitness is -0.19 ± 0.3. Take “BAG family molecular chaperone regulator 3 I30A, O95817”: the abundance fitness was -0.011 ± 0.11.

With “BAG family molecular chaperone regulator 3 I30C, O95817”, the abundance fitness came to 0.028 ± 0.16. As for “BAG family molecular chaperone regulator 3 I30D, O95817”, the abundance fitness was -0.389 ± 0.14. Next, “BAG family molecular chaperone regulator 3 I30E, O95817”: -0.226 ± 0.079. As for “BAG family molecular chaperone regulator 3 I30G, O95817”, the abundance fitness is -0.44 ± 0.087. Next, “BAG family molecular chaperone regulator 3 I30H, O95817”: -0.114 ± 0.074; “BAG family molecular chaperone regulator 3 I30K, O95817”: -0.087 ± 0.2. Take “BAG family molecular chaperone regulator 3 I30L, O95817”: the abundance fitness came out at 0.249 ± 0.091. Next, “BAG family molecular chaperone regulator 3 I30N, O95817”: -0.166 ± 0.28; “BAG family molecular chaperone regulator 3 I30P, O95817”: -0.661 ± 0.084; “BAG family molecular chaperone regulator 3 I30R, O95817”: -0.133 ± 0.084. For “BAG family molecular chaperone regulator 3 I30S, O95817”, the abundance fitness was -0.191 ± 0.077.

For “BAG family molecular chaperone regulator 3 I30T, O95817”, the abundance fitness was -0.32 ± 0.2. “BAG family molecular chaperone regulator 3 I30V, O95817” returned an abundance fitness of 0.207 ± 0.092. Regarding “BAG family molecular chaperone regulator 3 I30W, O95817”, the abundance fitness came to 0.13 ± 0.12. In the case of “BAG family molecular chaperone regulator 3 K29A, O95817” it was -0.37 ± 0.12.

In the case of “BAG family molecular chaperone regulator 3 K29C, O95817”, the abundance fitness was -0.369 ± 0.24. With “BAG family molecular chaperone regulator 3 K29E, O95817”, the abundance fitness was -0.791 ± 0.42. In the case of “BAG family molecular chaperone regulator 3 K29F, O95817” it was -0.719 ± 0.45; in that of “BAG family molecular chaperone regulator 3 K29G, O95817”, -0.531 ± 0.083; in that of “BAG family molecular chaperone regulator 3 K29H, O95817”, -0.686 ± 0.16. In the case of “BAG family molecular chaperone regulator 3 K29I, O95817” it was -0.758 ± 0.38; in that of “BAG family molecular chaperone regulator 3 K29L, O95817”, -0.376 ± 0.091; in that of “BAG family molecular chaperone regulator 3 K29M, O95817”, -0.23 ± 0.21. In the case of “BAG family molecular chaperone regulator 3 K29N, O95817” it was -0.75 ± 0.43; in that of “BAG family molecular chaperone regulator 3 K29P, O95817”, -0.598 ± 0.26; in that of “BAG family molecular chaperone regulator 3 K29Q, O95817”, -0.711 ± 0.28.

For the substance “BAG family molecular chaperone regulator 3 K29R, O95817”, the abundance fitness was -0.17 ± 0.066. As to “BAG family molecular chaperone regulator 3 K29S, O95817”, the abundance fitness was -0.313 ± 0.11. As to “BAG family molecular chaperone regulator 3 K29T, O95817”, the abundance fitness is -0.212 ± 0.16. In the case of “BAG family molecular chaperone regulator 3 K29V, O95817” it was -0.266 ± 0.11; in that of “BAG family molecular chaperone regulator 3 K29W, O95817”, -0.754 ± 0.29; in that of “BAG family molecular chaperone regulator 3 L22A, O95817”, -0.362 ± 0.17.

“BAG family molecular chaperone regulator 3 L22C, O95817” returned an abundance fitness of 0.225 ± 0.16. Next, “BAG family molecular chaperone regulator 3 L22D, O95817”: -0.753 ± 0.42. In the case of “BAG family molecular chaperone regulator 3 L22F, O95817” it was -0.069 ± 0.18. In the case of “BAG family molecular chaperone regulator 3 L22G, O95817” it was -0.144 ± 0.13; in that of “BAG family molecular chaperone regulator 3 L22H, O95817”, -0.796 ± 0.37; in that of “BAG family molecular chaperone regulator 3 L22I, O95817”, -0.271 ± 0.15.

In the case of “BAG family molecular chaperone regulator 3 L22M, O95817”, the abundance fitness was 0.023 ± 0.17. Next, “BAG family molecular chaperone regulator 3 L22N, O95817”: -0.67 ± 0.34. On to “BAG family molecular chaperone regulator 3 L22P, O95817”, for which the abundance fitness was -0.477 ± 0.23. In the case of “BAG family molecular chaperone regulator 3 L22Q, O95817” it was -0.226 ± 0.095; in that of “BAG family molecular chaperone regulator 3 L22S, O95817”, -0.574 ± 0.11; in that of “BAG family molecular chaperone regulator 3 L22T, O95817”, 0.047 ± 0.17. Next, “BAG family molecular chaperone regulator 3 L22V, O95817”: 0.078 ± 0.068.

Regarding “BAG family molecular chaperone regulator 3 L22W, O95817”, the abundance fitness was -0.464 ± 0.083. In the case of “BAG family molecular chaperone regulator 3 N16A, O95817” it was 0.423 ± 0.079.

The substance “BAG family molecular chaperone regulator 3 N16C, O95817” registered an abundance fitness of 0.113 ± 0.14.

Turning to “BAG family molecular chaperone regulator 3 N16D, O95817”, the abundance fitness is 0.008 ± 0.07. Substance “BAG family molecular chaperone regulator 3 N16E, O95817” showed an abundance fitness of 0.658 ± 0.11. Next, “BAG family molecular chaperone regulator 3 N16F, O95817”: -0.219 ± 0.24. “BAG family molecular chaperone regulator 3 N16H, O95817” registered an abundance fitness of 0.094 ± 0.13. Turning to “BAG family molecular chaperone regulator 3 N16I, O95817”, the abundance fitness was found to be 0.113 ± 0.19.

Source of the values: the Human Domainome abundance scans (Beltran et al. 2025).
